In PMC7970798 (Computational and Structural Biotechnology Journal, 2021):
Where two headings read alike, the source gives them in different places. No end group written: not given here. *: point of attachment. Biotin = O=C1N[C@H]2[C@H](CS[C@H]2CCCCC(=O)*)N1

T1: PDZ domain of wild type human PALS1 protein (human, UniProt Q8N3R9 256-336)
T1 sequence: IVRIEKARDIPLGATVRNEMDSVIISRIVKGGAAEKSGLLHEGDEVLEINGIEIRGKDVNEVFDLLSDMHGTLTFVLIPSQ

B1: CRB1 C-terminal tetradecapeptide (endogenous PALS1 ligand) (peptide)
peptide: Biotin-MWNLMPPPAMERLI

Legend:
Experiment in all cases: SPR
[1] = molecular target: T1, PDZ domain of wild type human PALS1 …
[2] = molecular target: T1, PDZ domain of wild type human PALS1 …; remark: listed apart in the source
[3] = molecular target: B1

Binder	Kd [2] [µM]	further results
B1		Kd [1]: 5.11 µM
KNLNSSEGVPDLLV [SARS-CoV-1 envelope E protein C-terminal tetradecapeptide]	> 500	
Biotin-VKNLNSSRVPDLLV [SARS-CoV-2 envelope E protein C-terminal tetradecapeptide]	63	
[change] variant of the PDZ domain of PALS1 (domain or fragment) IVRIEKARDIPLGATVRNEMDSVIISRIVKGGAAEKSGLLHEGDEVLEINGIEIRGKDVNEVWDLLSDMHGTLTFVLIPSQ		Kd [3]: 18 µM
